Test results taken from publication PMC7354924.
Blank lines part the entries; values can stand above or below the binder they belong to.

Columns and labels:
[1] = target: GDF5 variant Arg438Ala (human) (UniProt P43026); assay: SPR; GDF5 wild type (500 RU), Arg438Ala (702 RU) or Arg438Leu (977 RU) amine-coupled to a GLC sensor chip; RGMECD proteins from FreeStyle 293 cells as analytes, six concentrations (log2 series from 40, 30, 20 or 10 nM), 100 µl/min; 20 mM HEPES pH 7.4, 500 mM NaCl, 3.4 mM EDTA, 0.005% (v/v) Tween 20; kon and koff fitted globally, Kd = koff/kon; two independent experiments; apparent
[2] = target: GDF5 variant Arg438Leu (human) (UniProt P43026); assay: as above
[3] = target: growth differentiation factor 5 (GDF5), wild type (human) (UniProt P43026); assay: as above
[4] = target: GDF5 variant Tyr487Lys/Gln489Asp (UniProt P43026); assay: SEC-MALS; RGMBND–GDF5(Tyr487Lys/Gln489Asp)–ActR2bECD complex, 1 mg/mL, Superdex 200 HR 10/30, 0.5 M NaCl, 20 mM Hepes pH 7.4, 21 °C
[5] = target: bone morphogenetic protein 2 (BMP2) (human) (UniProt P12643); assay: SPR; ProteOn XPR36; BMP2 (570 RU) or GDF5 (470 RU) amine-coupled to a GLC sensor chip; ActR2b ectodomain perfused at 6 µM to 187.5 nM, 100 µl/min; 0.005% (v/v) Tween 20 buffer; Kd from the dose-dependency of equilibrium binding, one-site model; apparent
[6] = target: bone morphogenetic protein 2 (BMP2) (human) (UniProt P12643)
[7] = target: growth differentiation factor 5 (GDF5), wild type (human) (UniProt P43026)
[8] = target: bone morphogenetic protein 2 (BMP2) (human) (UniProt P12643); assay: SPR; ProteOn XPR36; BMP2 (570 RU), GDF5 (470 RU), TGF-β2 (300 RU) or activin A (350 RU) amine-coupled to a GLC sensor chip; analyte perfused (RGMB 50 to 1.56 nM at 150 or 100 µl/min; BMPR1A 1000 to 31.25 nM at 100 µl/min); 20 mM HEPES pH 7.4, 500 mM NaCl, 3.4 mM EDTA, 0.005% (v/v) Tween 20; 25 °C; Langmuir 1:1 kinetic fit (parameters local for RGMB), Kd = koff/kon; apparent
[9] = target: growth differentiation factor 5 (GDF5), wild type (human) (UniProt P43026); assay: as above

Sequence of GDF5 variant Arg438Leu (human) (P43026 28-501 R438L): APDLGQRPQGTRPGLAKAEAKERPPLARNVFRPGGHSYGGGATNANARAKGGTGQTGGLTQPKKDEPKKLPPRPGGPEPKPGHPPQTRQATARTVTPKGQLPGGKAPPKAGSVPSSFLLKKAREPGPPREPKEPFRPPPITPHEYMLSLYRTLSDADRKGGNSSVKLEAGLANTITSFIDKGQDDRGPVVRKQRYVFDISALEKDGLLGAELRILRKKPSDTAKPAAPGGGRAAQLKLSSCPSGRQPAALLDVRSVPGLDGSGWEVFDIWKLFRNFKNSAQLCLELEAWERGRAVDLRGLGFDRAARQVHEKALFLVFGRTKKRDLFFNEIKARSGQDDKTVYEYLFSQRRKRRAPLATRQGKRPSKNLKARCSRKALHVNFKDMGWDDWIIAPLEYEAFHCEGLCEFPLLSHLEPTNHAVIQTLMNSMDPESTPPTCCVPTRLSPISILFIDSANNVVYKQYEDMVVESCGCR
Sequence of growth differentiation factor 5 (GDF5), wild type (human) (P43026 28-501): as the sequence (P43026 28-501 R438L) above, with L411R counted along it
Sequence of bone morphogenetic protein 2 (BMP2) (human) (P12643 24-396): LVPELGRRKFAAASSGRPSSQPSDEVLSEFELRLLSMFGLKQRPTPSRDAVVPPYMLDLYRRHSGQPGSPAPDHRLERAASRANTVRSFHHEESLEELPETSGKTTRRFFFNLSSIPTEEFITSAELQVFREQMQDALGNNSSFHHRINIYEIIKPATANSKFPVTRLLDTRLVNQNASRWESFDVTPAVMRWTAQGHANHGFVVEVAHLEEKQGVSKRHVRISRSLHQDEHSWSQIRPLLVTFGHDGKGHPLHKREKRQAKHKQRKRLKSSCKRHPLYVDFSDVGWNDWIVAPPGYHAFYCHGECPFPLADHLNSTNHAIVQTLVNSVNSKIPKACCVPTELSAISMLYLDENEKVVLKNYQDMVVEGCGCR
Sequence of GDF5 variant Arg438Ala (human) (P43026 28-501 R438A): as the sequence (P43026 28-501 R438L) above, with L411A counted along it
Sequence of GDF5 variant Tyr487Lys/Gln489Asp (P43026 28-501 Y487K/Q489D): as the sequence (P43026 28-501 R438L) above, with L411R, Y460K, Q462D counted along it

Kd [1]: 2.3 nM
koff [1]: 0.00026 s⁻¹
kon [1]: 160000 M⁻¹ s⁻¹
Kd [2]: 2.2 nM
koff [2]: 0.00041 s⁻¹
kon [2]: 190000 M⁻¹ s⁻¹
Kd [3]: 2.8 nM
koff [3]: 0.00064 s⁻¹
kon [3]: 240000 M⁻¹ s⁻¹
B1: full-length extracellular domain of RGMC (Gln36-Asp400) from FreeStyle 293 cells (domain or fragment)
chain: QCKILRCNAEYVSSTLSLRGGGSSGALRGGGGGGRGGGVGSGGLCRALRSYALCTRRTARTCRGDLAFHSAVHGIEDLMIQHNCSRQGPTAPPPPRGPALPGAGSGLPAPDPCDYEGRFSRLHGRPPGFLHCASFGDPHVRSFHHHFHTCRVQGAWPLLDNDFLFVQATSSPMALGANATATRKLTIIFKNMQECIDQKVYQAEVDNLPVAFEDGSINGGDRPGGSSLSIQTANPGNHVEIQAAYIGTTIIIRQTAGQLSFSIKVAEDVAMAFSAEQDLQLCVGGCPPSQRLSRSERNRRGAITIDTARRLCKEGLPVEDAYFHSCVFDVLISGDPNFTVAAQAALEDARAFLPDLEKLHLFPSD

Kd [1]: 1.7 nM
koff [1]: 0.00045 s⁻¹
kon [1]: 270000 M⁻¹ s⁻¹
Kd [2]: 1.4 nM
koff [2]: 0.00042 s⁻¹
kon [2]: 300000 M⁻¹ s⁻¹
Kd [3]: 1.3 nM
koff [3]: 0.00052 s⁻¹
kon [3]: 420000 M⁻¹ s⁻¹
B2: full-length extracellular domain of RGMA (Cys48-Arg423) from FreeStyle 293 cells (domain or fragment)
chain: CKILKCNSEFWSATSGSHAPASDDTPEFCAALRSYALCTRRTARTCRGDLAYHSAVHGIEDLMSQHNCSKDGPTSQPRLRTLPPAGDSQERSDSPEICHYEKSFHKHSATPNYTHCGLFGDPHLRTFTDRFQTCKVQGAWPLIDNNYLNVQVTNTPVLPGSAATATSKLTIIFKNFQECVDQKVYQAEMDELPAAFVDGSKNGGDKHGANSLKITEKVSGQHVEIQAKYIGTTIVVRQVGRYLTFAVRMPEEVVNAVEDWDSQGLYLCLRGCPLNQQIDFQAFHTNAEGTGARRLAAASPAPTAPETFPYETAVAKCKEKLPVEDLYYQACVFDLLTTGDVNFTLAAYYALEDVKMLHSNKDKLHLYERTRDLPGR

stoichiometry N (ActR2b per GDF5 dimer (2:2:2 by chains)) [4]: 2
B3: ActR2b extracellular domain (ActR2bECD) (receptor)
chain: SGRGEAETRECIYYNANWELERTNQSGLERCEGEQDKRLHCYASWRNSSGTIELVKKGCWLDDFNCYDRQECVATEENPQVYFCCCEGNFCNERFTHLPEAGGPEVTYEPPPTAPTLLT

Kd [5]: 2700 nM
B4: murine activin type-2 receptor ActR2b, soluble ectodomain (residues Gly20 to Glu127) (receptor)
chain: GRGEAETRECIYYNANWELERTNQSGLERCEGEQDKRLHCYASWRNSSGTIELVKKGCWLDDFNCYDRQECVATEENPQVYFCCCEGNFCNERFTHLPEPGGPEVTYE

Fig. S3C: IC50 of soluble RGMB for inhibition of BMP2 (10 nM)-induced alkaline phosphatase expression in ATDC5 cells [6]: > 1500 nM
Fig. S3C: inhibitory constant Ki of soluble RGMB (Cheng-Prusoff, from EC50 and IC50) for BMP2-induced alkaline phosphatase expression in ATDC5 cells [6]: > 500 nM
Fig. S3G: IC50 of soluble RGMB for inhibition of BMP2 (10 nM)-induced SMAD signaling (BRE-Luc reporter) in C3H10T1/2 cells [6]: 41 nM
Fig. S3D: IC50 of soluble RGMB for inhibition of GDF5 (20 nM)-induced alkaline phosphatase expression in ATDC5 cells [7]: 166 nM
Fig. S3D: inhibitory constant Ki of soluble RGMB (from EC50 and IC50) for GDF5-induced alkaline phosphatase expression in ATDC5 cells [7]: 85 nM
Fig. S3H: IC50 of soluble RGMB for inhibition of GDF5 (10 nM)-induced SMAD signaling (BRE-Luc reporter) in C3H10T1/2 cells [7]: 47 nM
koff [8]: 0.011 s⁻¹
kon [8]: 5.3e+06 M⁻¹ s⁻¹
koff [9]: 0.0025 s⁻¹
kon [9]: 1.8e+06 M⁻¹ s⁻¹
B5: soluble mature RGMB (Gln49-Gly412) produced in insect cells (domain or fragment)
chain: QQPAQCRIQKCTTDFVSLTSHLNSAVDGFDSEFCKALRAYAGCTQRTSKACRGNLVYHSAVLGISDLMSQRNCSKDGPTSSTNPEVTHDPCNYHSHAGAREHRRGDQNPPSYLFCGLFGDPHLRTFKDNFQTCKVEGAWPLIDNNYLSVQVTNVPVVPGSSATATNKITIIFKAHHECTDQKVYQAVTDDLPAAFVDGTTSGGDSDAKSLRIVERESGHYVEMHARYIGTTVFVRQVGRYLTLAIRMPEDLAMSYEESQDLQLCVNGCPLSERIDDGQGQVSAILGHSLPRTSLVQAWPGYTLETANTQCHEKMPVKDIYFQSCVFDLLTTGDANFTAAAHSALEDVEALHPRKERWHIFPSSG

Kd [1]: 1.5 nM
koff [1]: 0.0015 s⁻¹
kon [1]: 1e+06 M⁻¹ s⁻¹
Kd [2]: 1.1 nM
koff [2]: 0.0011 s⁻¹
kon [2]: 1e+06 M⁻¹ s⁻¹
Kd [3]: 3.7 nM
koff [3]: 0.0016 s⁻¹
kon [3]: 420000 M⁻¹ s⁻¹
B6: full-length extracellular domain of RGMB (Gln49-Gly412) from FreeStyle 293 cells (domain or fragment)
chain: B5 chain
